We go through one molecule from patent US8247168B2, “Regulation of gene expression by protein methylation” (University of Southern California, priority 1998, dated 2012).

In experiment [1] the test system is androgen receptor, estrogen receptor, and thyroid hormone receptor. Description: Reporter gene activation by hormone-activated nuclear receptors in transiently transfected CV-1 cells. The experiment is classed as cell-based. The note with it: co-expression of CARM1 with the NR and GRIP1, over NR+GRIP1 (lane e). As for the experimental part: (A) Transient transfection assays with CV-1 cells were performed as in FIG. 5 with 0.5 μg of GK1 reporter gene and 0.5 μg of each of the indicated vectors. (B) CV-1 cells were transiently transfected as in FIG. 5 with the following vectors, as indicated: 0.5 μg of nuclear receptor expression vector pSVAR0 (Brinkmann, A. O. et al. (1989) J. Steroid Biochem. Molec. Biol. 34:307) expressing AR, pHE0 (Green, S. et al. (1988) Nucleic Acids Res. 16:369) expressing ER, or pCMX.hTRβ1 (Feng, W. et al. (1998) Science 280:1747) expressing TR; 0.5 μg of a luciferase reporter gene with an appropriate promoter, MMTV promoter for AR, or MMTV promoter with the native glucocorticoid response elements replaced by a single estrogen response element for ER or palindromic thyroid hormone response element for TR (Umesono, K. and R. M. Evans (1989) Cell 57:1139); 0.5 μg of pSG5.HA-GRIP1; and 0.5 μg of pSG5.HA-CARM1 or pSG5.HA-CARM1 (VLD mutant). Transfection efficiency was monitored by using βgalactosidase activity expressed from 0.1 μg of co-transfected pCMV-βgal vector (Hong, H. et al. (1996) Proc. Natl. Acad. Sci. USA 93:4948-4952) as an internal control. After transfection, cells were grown in charcoal-treated serum; where indicated 20 nM hormone (H), i.e. dihydrotestosterone for AR, estradiol for ER, or triiodothyronine for TR, was included during the last 40 h of culture. […]

Experiment [2] concerns the target T1, histone H3 (Bos taurus, UniProt P68432).
T1 construct: A 3.2-kb partial CARM1 cDNA clone with an open reading frame of 606 amino acids (CARM1(3-608)); purchased Boehringer Mannheim; host or cells: histone H3 from calf thymus; GST-CARM1 made in E. coli BL21
Description: Identification of methylated amino acids in histone H3 by thin layer chromatography of the hydrolyzate. The experiment is classed as biochemical, calf. The following applies: histone H3 methylated by CARM1, thin layer chromatography. As for the experimental part: Histone H3 was incubated for 60 min at 30° C. in a 100 μl methylation reaction as described in FIG. 8, containing 0.024 mg/ml GST-CARM1 and 0.63 mg/ml H3. The reaction was stopped with 25 μl of 3% (v/v) trifluoroacetic acid (TFA), 15% (v/v) acetonitrile, and 100 μl was injected into a 3 cm×4.6 mm RP-300 reversed-phase guard column (Perkin Elmer-Brownlee) equilibrated with 80% solvent A (0.3% TFA in water) and 20% solvent B (0.3% TFA in acetonitrile). Methylated H3 was separated from unreacted S-adenosylmethionine using a gradient of 20-80% solvent B over 5 min at a flow rate of 1.0 ml/min. H3 eluted as a broad complex peak detected by monitoring absorbance at 214 nm. The H3 pool was reduced to dryness in a vacuum centrifuge and then subjected to acid hydrolysis in 6 N HCl at 112° C. for 20 h. […] Radioactivity in the fractions was determined by liquid scintillation counting, and peak identity was determined by comparison to derivatized standards including the three major forms of methylarginine and methyllysine. […] Radioactive spots corresponding to the positions of the three forms of methylarginine (which all separated from each other) were removed by scraping the chromatogram, and quantified by liquid scintillation counting. […]

B1: CARM1: novel murine protein arginine methyltransferase and transcriptional coactivator, 608 amino acids (protein, listed as Mus musculus)
chain: MAAAAATAVGPGAGSAGVAGPGGAGPCATVSVFPGARLLTIGDANGEIQRHAEQQALRLEVRAGPDAAGIALYSHEDVCVFKCSVSRETECSRVGRQSFIITLGCNSVLIQFATPHDFCSFYNILKTCRGHTLERSVFSERTEESSAVQYFQFYGYLSQQQNMMQDYVRTGTYQRAILQNHTDFKDKIVLDVGCGSGILSFFAAQAGARKIYAVEASTMAQHAEVLVKSNNLTDRIVVIPGKVEEVSLPEQVDIIISEPMGYMLFNERMLESYLHAKKYLKPSGNMFPTIGDVHLAPFTDEQLYMEQFTKANFRYQPSFHGVDLSALRGAAVDEYFRQPVVDTFDIRILMAKSVKYTVNFLEAKEGDLHRIEIPFKFHMLHSGLVHGLAFWFDVAFIGSIMTVWLSTAPTEPLTHWYQVRCLFQSPLFAKAGDTLSGTCLLIANKRQSYDISIVAQVDQTGSKSSNLLDLKNPFFRYTGTTPSPPPGSHYTSPSENMWNTGSTYNLSSGVAVAGMPTAYDLSSVIAGGSSVGHNNLIPLANTGIVNHTHSRMGSIMSTGIVQGSSGAQGGGGSSSAHYAVNNQFTMGGPAISMASPMSIPTNTMHYGS
Turning to B1, in experiment [1], the “further enhancement of reporter gene expression” value fell in the range of 2 to 4 fold. In experiment [2], the “radiolabel migrating with N^G,N^G-dimethylarginine” value is given as “approximately 70%” and the “radiolabel migrating with N^G-monomethylarginine” value came to 30%.
